Legend:
[1] = target: PmScsCΔLinker (Proteus mirabilis); experiment: crystal structure
[2] = target: PmScsCΔLinker (Proteus mirabilis); experiment: SAXS
[3] = target: Proteus mirabilis suppressor of copper sensitivity protein C (PmScsC) (Proteus mirabilis); experiment: SAXS

Substance	stoichiometry N [1]	Kd [2] [µM]	percent dimer at 0.1 mg/mL [2] [%]	percent dimer at 10 mg/ml [2] [%]	percent monomer at 0.1 mg/mL [2] [%]	percent monomer at 10 mg/ml [2] [%]	percent trimer at 10 mg/ml [2] [%]	percent present as monomer at 0.1 mg/mL [3] [%]	stoichiometry N [3]
PmScsCΔLinker (enzyme)	3	200	3	48	97	40	12	–	–
Proteus mirabilis suppressor of copper sensitivity protein C (PmScsC) (enzyme)	–	–	–	–	–	–	–	1	3
